# Assay results: the RNAGym collection of RNA variant scans (doi:10.7554/elife.80360)
# B1: Hairpin Ribozyme (parent)
# chain: GUCCUCUUUCACGUGCGCGUGAAAGAGAGAAGUGAACCAGAGAAACACACGUUGUGGUAUAUUACCUGGUA
# Variants of: B1
# Assay: self-cleavage, relative activity (ratio to wild type); higher = more cleavage; co-transcriptional
row,Variant,self-cleavage
1,GUCCUCUUUCACGUGCGCGUGAAAGAGGGAAGUGAACCAGAGAAACAAACGUUGUGGUAUAUUACCUGGUA [A28G C48A],0.143
2,GUCCUCUUUCACGUGCGCGUGAAAGAGGGAAGUGAACCAGAGAAACAGACGUUGUGGUAUAUUACCUGGUA [A28G C48G],0.0684
3,GUCCUCUUUCACGUGCGCGUGAAAGAGGGAAGUGAACCAGAGAAACACUCGUUGUGGUAUAUUACCUGGUA [A28G A49U],0.118
4,GUCCUCUUUCACGUGCGCGUGAAAGAGGGAAGUGAACCAGAGAAACACGCGUUGUGGUAUAUUACCUGGUA [A28G A49G],0.637
5,GUCCUCUUUCACGUGCGCGUGAAAGAGGGAAGUGAACCAGAGAAAAACACGUUGUGGUAUAUUACCUGGUA [A28G C46A],0.199
6,GUCCUCUUUCACGUGCGCGUGAAAGAGCGAAGUGAACCAGAGAAACACACGUUGUGGUAUAUGACCUGGUA [A28C U63G],0.176
7,GUCCUCUUUCACGUGCGCGUGAAAGAGCGAAGUGAACCAGAGAAACACACGUUGUGGUAUAUCACCUGGUA [A28C U63C],0.251
8,GUCCUCUUUCACGUGCGCGUGAAAGAGGGAAGUGAACCAGAGGAACACACGUUGUGGUAUAUUACCUGGUA [A28G A43G],0.158
9,GUCCUCUUUCACGUGCGCGUGAAAGAGGGAAGUGAACCAGAGUAACACACGUUGUGGUAUAUUACCUGGUA [A28G A43U],0.123
10,GUCCUCUUUCACGUGCGCGUGAAAGAGGGAAGUGAGCCAGAGAAACACACGUUGUGGUAUAUUACCUGGUA [A28G A36G],1.16
11,GUCCUCUUUCACGUGCGCGUGAAAGAGCGAAGUGAACCAGAGAAACACACGUUGUGGUAAAUUACCUGGUA [A28C U60A],0.448
12,GUCCUCUUUCACGUGCGCGUGAAAGAGGGAAGUGCACCAGAGAAACACACGUUGUGGUAUAUUACCUGGUA [A28G A35C],1.27
13,GUCCUCUUUCACGUGCGCGUGAAAGAGGGAAGUGGACCAGAGAAACACACGUUGUGGUAUAUUACCUGGUA [A28G A35G],0.864
14,GUCCUCUUUCACGUGCGCGUGAAAGAGGGAACUGAACCAGAGAAACACACGUUGUGGUAUAUUACCUGGUA [A28G G32C],0.119
15,GUCCUCUUUCACGUGCGCGUGAAAGAGCGAAGUGAACCAGAGAAACACACGUUGUGGUAUAUUACCUCGUA [A28C G68C],0.309
16,GUCCUCUUUCACGUGCGCGUGAAAGAGGGAAGUGAACCAGAGAAACACAGGUUGUGGUAUAUUACCUGGUA [A28G C50G],0.467
17,GUCCUCUUUCACGUGCGCGUGAAAGAGGGAAGUGAACCAGAGAAACACAUGUUGUGGUAUAUUACCUGGUA [A28G C50U],0.439
18,GUCCUCUUUCACGUGCGCGUGAAAGAGUGAAGUGAUCCAGAGAAACACACGUUGUGGUAUAUUACCUGGUA [A28U A36U],0.276
19,GUCCUCUUUCACGUGCGCGUGAAAGAGGGAAGUGAACCAGAGAAACACACGUUGUGGUAUAUAACCUGGUA [A28G U63A],0.141
20,GUCCUCUUUCACGUGCGCGUGAAAGAGGGAAGUGAACCAGAGAAACACACGUUGUGGUAUAUCACCUGGUA [A28G U63C],0.138
21,GUCCUCUUUCACGUGCGCGUGAAAGAGGGAAGUGAACCAGAGAAACACACGUUGUGGUAUAUGACCUGGUA [A28G U63G],0.223
22,GUCCUCUUUCACGUGCGCGUGAAAGAGGGAAGUGAACCAGAGAAACACACGUUGUGGUAUAUUACCUGGCA [A28G U70C],0.859
23,GUCCUCUUUCACGUGCGCGUGAAAGAGGGAAGUGAACCAGAGAAACACACGUUGUGGUAUAUUACCUGGUU [A28G A71U],0.771
24,GUCCUCUUUCACGUGCGCGUGAAAGAGGGAAGUGAACCAGAGAAACACACGUUGUGGUAAAUUACCUGGUA [A28G U60A],0.661
25,GUCCUCUUUCACGUGCGCGUGAAAGAGGGAAGUGAACCAGAUAAACACACGUUGUGGUAUAUUACCUGGUA [A28G G42U],0.375
26,GUCCUCUUUCACGUGCGCGUGAAAGAGGGAAGCGAACCAGAGAAACACACGUUGUGGUAUAUUACCUGGUA [A28G U33C],0.155

row,Variant,self-cleavage
1,GUCCUCUUUCACGUGCGCGUGAAAGAGGGAAGUGAACCAGAGAAACACACGUUUUGGUAUAUUACCUGGUA [A28G G54U],0.541
2,GUCCUCUUUCACGUGCGCGUGAAAGAGGGAAGUGAACCAGAGAAACACACGUUGUGGUAUAUUACUUGGUA [A28G C66U],0.654
3,GUCCUCUUUCACGUGCGCGUGAAAGAGGGAAGUGAACCAGAGAAACACACGUUGUGGUAUAUUACGUGGUA [A28G C66G],0.0858
4,GUCCUCUUUCACGUGCGCGUGAAAGAGCGAAGUGAACCAGAGAAACACACGUUGCGGUAUAUUACCUGGUA [A28C U55C],0.216
5,GUCCUCUUUCACGUGCGCGUGAAAGAGCGAAGUGAACCAGAGAAACACACGUUGGGGUAUAUUACCUGGUA [A28C U55G],0.217
6,GUCCUCUUUCACGUGCGCGUGAAAGAGUGAAGUGAACCAGAGAAACACUCGUUGUGGUAUAUUACCUGGUA [A28U A49U],0.111
7,GUCCUCUUUCACGUGCGCGUGAAAGAGGGAAGUGAACCAGAGAAGCACACGUUGUGGUAUAUUACCUGGUA [A28G A45G],0.242
8,GUCCUCUUUCACGUGCGCGUGAAAGAGGGAAGUGAACCAAAGAAACACACGUUGUGGUAUAUUACCUGGUA [A28G G40A],0.426
9,GUCCUCUUUCACGUGCGCGUGAAAGAGGGAAGUGAACCAGAGAAACACACGUUGUGGUAUUUUACCUGGUA [A28G A61U],0.182
10,GUCCUCUUUCACGUGCGCGUGAAAGAGGGAAGUGAACCAGAGAAACACACGUUGUGGUAUCUUACCUGGUA [A28G A61C],0.434
11,GUCCUCUUUCACGUGCGCGUGAAAGAGUGAAGUGAACCAGAGAUACACACGUUGUGGUAUAUUACCUGGUA [A28U A44U],0.0894
12,GUCCUCUUUCACGUGCGCGUGAAAGAGGGAAGUGAACCAGAGAAACACACGUUGUGGUGUAUUACCUGGUA [A28G A59G],0.181
13,GUCCUCUUUCACGUGCGCGUGAAAGAGGGAAGUGAACCAGAGAAACACACGUUGUGGUCUAUUACCUGGUA [A28G A59C],0.114
14,GUCCUCUUUCACGUGCGCGUGAAAGAGCGAAGUGAACCAGAGAAACACACGUUGUGAUAUAUUACCUGGUA [A28C G57A],0.119
15,GUCCUCUUUCACGUGCGCGUGAAAGAGUGAUGUGAACCAGAGAAACACACGUUGUGGUAUAUUACCUGGUA [A28U A31U],0.138
16,GUCCUCUUUCACGUGCGCGUGAAAGAGGGAAGUGAACCAGAGAAACACACGUUGUGGUAUAUUACCUCGUA [A28G G68C],0.115
17,GUCCUCUUUCACGUGCGCGUGAAAGAGGUAAGUGAACCAGAGAAACACACGUUGUGGUAUAUUACCUGGUA [A28G G29U],0.0365
18,GUCCUCUUUCACGUGCGCGUGAAAGAGGGAAGUGAACCAGAGAAACACACGUUGUGGUAUAUUCCCUGGUA [A28G A64C],0.165
19,GUCCUCUUUCACGUGCGCGUGAAAGAGGGAAGUGAACCAGAGAAACACACGUUGUGGUAUAUUUCCUGGUA [A28G A64U],0.159
20,GUCCUCUUUCACGUGCGCGUGAAAGAGCGAAGUGAACCAGAGAAACACACGUUGUGGUAUAUUACCGGGUA [A28C U67G],0.184
21,GUCCUCUUUCACGUGCGCGUGAAAGAGCGAAGUGAACCAGAGAAACACACGUUGUGGUAUAUUACCAGGUA [A28C U67A],0.135
22,GUCCUCUUUCACGUGCGCGUGAAAGAGUGAAGUGAACCAGAGAAACACACGUUGUGGUAUAUUACCUGGUA [A28U],0.656
23,GUCCUCUUUCACGUGCGCGUGAAAGAGGGAAGUGAACCAGAGAAACACACGUUGUGGUAUAUUACCUGGUA [A28G],1.12
24,GUCCUCUUUCACGUGCGCGUGAAAGAGCGAAGUGAACCAGAGAAACACACAUUGUGGUAUAUUACCUGGUA [A28C G51A],0.517
25,GUCCUCUUUCACGUGCGCGUGAAAGAGCGAAGUGAACCAGAGAAACACACCUUGUGGUAUAUUACCUGGUA [A28C G51C],0.336
26,GUCCUCUUUCACGUGCGCGUGAAAGAGGGAAGUGAACCAGAGAAACACACUUUGUGGUAUAUUACCUGGUA [A28G G51U],1.14

row,Variant,self-cleavage
1,GUCCUCUUUCACGUGCGCGUGAAAGAGGGAAGUGAACCAGAGAAACACACGUUGAGGUAUAUUACCUGGUA [A28G U55A],0.208
2,GUCCUCUUUCACGUGCGCGUGAAAGAGGGAAGUGAACCAGAGAAACACACGUUGCGGUAUAUUACCUGGUA [A28G U55C],0.53
3,GUCCUCUUUCACGUGCGCGUGAAAGAGGGAAGUGAACCAGAGAGACACACGUUGUGGUAUAUUACCUGGUA [A28G A44G],0.222
4,GUCCUCUUUCACGUGCGCGUGAAAGAGUGAAGUGAACCAGAGAAACCCACGUUGUGGUAUAUUACCUGGUA [A28U A47C],0.172
5,GUCCUCUUUCACGUGCGCGUGAAAGAGCGAAGUGAACCAGAGAAACACACGAUGUGGUAUAUUACCUGGUA [A28C U52A],0.492
6,GUCCUCUUUCACGUGCGCGUGAAAGAGUGAAGUGAACCAGAGAAGCACACGUUGUGGUAUAUUACCUGGUA [A28U A45G],0.121
7,GUCCUCUUUCACGUGCGCGUGAAAGAGGGCAGUGAACCAGAGAAACACACGUUGUGGUAUAUUACCUGGUA [A28G A30C],0.0631
8,GUCCUCUUUCACGUGCGCGUGAAAGAGGGGAGUGAACCAGAGAAACACACGUUGUGGUAUAUUACCUGGUA [A28G A30G],0.218
9,GUCCUCUUUCACGUGCGCGUGAAAGAGUGAAGUGAACCAGUGAAACACACGUUGUGGUAUAUUACCUGGUA [A28U A41U],1.31
10,GUCCUCUUUCACGUGCGCGUGAAAGAGUGAAGUGAACCAGGGAAACACACGUUGUGGUAUAUUACCUGGUA [A28U A41G],0.35
11,GUCCUCUUUCACGUGCGCGUGAAAGAGGGAUGUGAACCAGAGAAACACACGUUGUGGUAUAUUACCUGGUA [A28G A31U],0.0204
12,GUCCUCUUUCACGUGCGCGUGAAAGAGGGAGGUGAACCAGAGAAACACACGUUGUGGUAUAUUACCUGGUA [A28G A31G],0.416
13,GUCCUCUUUCACGUGCGCGUGAAAGAGCGAAGUGAACCAGAGAAACACACGUUGUCGUAUAUUACCUGGUA [A28C G56C],0.101
14,GUCCUCUUUCACGUGCGCGUGAAAGAGUGAAGUGAACCCGAGAAACACACGUUGUGGUAUAUUACCUGGUA [A28U A39C],0.337
15,GUCCUCUUUCACGUGCGCGUGAAAGAGUGAAGUGUACCAGAGAAACACACGUUGUGGUAUAUUACCUGGUA [A28U A35U],0.505
16,GUCCUCUUUCACGUGCGCGUGAAAGAGGGAAGUGAACCAGAGAAACACACGUUGUGGUAUAUUACCCGGUA [A28G U67C],0.276
17,GUCCUCUUUCACGUGCGCGUGAAAGAGGGAAGUGAACCAGAGAAACACACGUUGUGGUAUAGUACCUGGUA [A28G U62G],0.183
18,GUCCUCUUUCACGUGCGCGUGAAAGAGGGAAGUGAACCAGAGAAACACACGUUGUGGUAUAAUACCUGGUA [A28G U62A],0.287
19,GUCCUCUUUCACGUGCGCGUGAAAGAGGGAAGUGAACCAGAGAAACACACGUUGUGGUAUAUUACCUGAUA [A28G G69A],0.48
20,GUCCUCUUUCACGUGCGCGUGAAAGAGCGAAGUGAACCAGAGAAACACACGUAGUGGUAUAUUACCUGGUA [A28C U53A],0.39
21,GUCCUCUUUCACGUGCGCGUGAAAGAGCGAAGUGAACCAGAGAAACACACGUGGUGGUAUAUUACCUGGUA [A28C U53G],0.213
22,GUCCUCUUUCACGUGCGCGUGAAAGAGGGAAGUGAACCAGAGAAACACACGCUGUGGUAUAUUACCUGGUA [A28G U52C],0.763
23,GUCCUCUUUCACGUGCGCGUGAAAGAGGGAAGUGAACCAGAGAAACACACGGUGUGGUAUAUUACCUGGUA [A28G U52G],0.948
24,GUCCUCUUUCACGUGCGCGUGAAAGAGGGAAGUAAACCAGAGAAACACACGUUGUGGUAUAUUACCUGGUA [A28G G34A],1.25
